Numbering of substitutions follows the chain as printed. Numbers in names are those of the source.
B1: SEQ ID NO: 4: EGC synthase, E350S, Δ1-24, N-term. His-Tag; Rhodococcus sp. AQ5-07 (protein)
chain: MGHHHHHHMQGSLPTSGSAGGTDVPPSYLTDDAGRSLILRGFNTASSAKSEPEPGQYDQEYLDRVEDRVSWYAERGYKVMLDMHQDVYSGAITPEGNSGNGAGNIGNGAPAWATYMDGLPVSPQDRWELYYIQPGVMRAFDNFWNTTGQHPELVEHYANAWQAVAERFAGNDTVVAYDLMNEPWGGSLQGPAFEGGPLAALYQRTTNAIREVDQDSWVCVAPQAVGVNQGVPSGLTKINDPRAGEQRIAYCPHLYPLPLDLGDGYSGLSRTLTDATIDTWRDSVEHIAGNVLGGVPVILASFGLDTTLPGATDYIDRVYATARELGAGVSYWSSDPGPWGPYLPDGTQTLLVDTLNRPYPRAVAGTPTEWSSSVDRLQLTFTPNPAVTAPTEIYLPESGFPGGVDVAGADIVNWNPQSRLLTVEAPDGMPKFTEADLEREHADMGTNFVRFLISWRSVTADDAGPVTVTVTPAS
modifications: N-terminal His-tag
B2: SEQ ID NO: 8: EGC synthase, E350S, D312Y, Δ1-24, N-term. His-Tag, Δ146-152; Rhodococcus sp. AQ5-07 (protein)
chain: MGHHHHHHMQGSLPTSGSAGGTDVPPSYLTDDAGRSLILRGFNTASSAKSEPEPGQYDQEYLDRVEDRVSWYAERGYKVMLDMHQDVYSGAITPEGNIGNGAPAWATYMDGLPVSPQDRWELYYIQPGVMRAFDNFWNTTGQHPELVEHYANAWQAVAERFAGNDTVVAYDLMNEPWGGSLQGPAFEGGPLAALYQRTTNAIREVDQDSWVCVAPQAVGVNQGVPSGLTKINDPRAGEQRIAYCPHLYPLPLDLGYGYSGLSRTLTDATIDTWRDSVEHIAGNVLGGVPVILASFGLDTTLPGATDYIDRVYATARELGAGVSYWSSDPGPWGPYLPDGTQTLLVDTLNRPYPRAVAGTPTEWSSSVDRLQLTFTPNPAVTAPTEIYLPESGFPGGVDVAGADIVNWNPQSRLLTVEAPDGMPKFTEADLEREHADMGTNFVRFLISWRSVTADDAGPVTVTVTPAS
modifications: N-terminal His-tag
B3: SEQ ID NO: 17: Reference EGC synthase, E351S, D314Y, A153T, Δ1-30, N-term. His-Tag; Rhodococcus sp. strain M-777 (protein)
chain: MGSSHHHHHHSSGLVPRGSHMSGSGSGSGTALTPSYLKDDDGRSLILRGFNTASSAKSAPDGMPQFTEADLAREYADMGTNFVRFLISWRSVEPAPGVYDQQYLDRVEDRVGWYAERGYKVMLDMHQDVYSGAITPEGNSGNGTGAIGNGAPAWATYMDGLPVEPQPRWELYYIQPGVMRAFDNFWNTTGKHPELVEHYAKAWRAVADRFADNDAVVAYDLMNEPFGGSLQGPAFEAGPLAAMYQRTTDAIRQVDQDTWVCVAPQAIGVNQGLPSGLTKIDDPRAGQQRIAYCPHLYPLPLDIGYGHEGLARTLTDVTIDAWRANTAHTARVLGDVPIILGSFGLDTTLPGARDYIERVYGTAREMGAGVSYWSSDPGPWGPYLPDGTQTLLVDTLNKPYPRAVAGTPTEWSSTSDRLQLTIEPDAAITAPTEIYLPEAGFPGDVHVEGADVVGWDRQSRLLTVRTPADSGNVTVTVTPAA
modifications: N-terminal His-tag
B4: SEQ ID NO: 5: EGC synthase, E350S, Δ146-152; Rhodococcus sp. AQ5-07 (protein)
chain: MRRIPLSALIVAGSLILGGGIAAAQGSLPTSGSAGGTDVPPSYLTDDAGRSLILRGFNTASSAKSAPDGMPKFTEADLEREHADMGTNFVRFLISWRSVEPEPGQYDQEYLDRVEDRVSWYAERGYKVMLDMHQDVYSGAITPEGNIGNGAPAWATYMDGLPVSPQDRWELYYIQPGVMRAFDNFWNTTGQHPELVEHYANAWQAVAERFAGNDTVVAYDLMNEPWGGSLQGPAFEGGPLAALYQRTTNAIREVDQDSWVCVAPQAVGVNQGVPSGLTKINDPRAGEQRIAYCPHLYPLPLDLGDGYSGLSRTLTDATIDTWRDSVEHIAGNVLGGVPVILASFGLDTTLPGATDYIDRVYATARELGAGVSYWSSDPGPWGPYLPDGTQTLLVDTLNRPYPRAVAGTPTEWSSSVDRLQLTFTPNPAVTAPTEIYLPESGFPGGVDVAGADIVNWNPQSRLLTVETADDAGPVTVTVTPAS
B5: SEQ ID NO: 15: EGC synthase, E339S, Δ1-26; Rhodococcus hoagii 103S (SEQ ID NO: 14) (protein)
chain: MAPPATPITTLQADGTHLVDGYGRTVLLHGVNNVDKDAPYLPAGETLTPQDIDILVRHGFNTVRLGTSFDALMPQRGQIDEAYLDRLTGVVDALTARGMHVLLDNHQDGLSKAWGGNGFPEWAIESRPREWEPNPGFPLYYLMPSLNAGWDEVWGNTHGALDHLGTALGALAERVEGKPGVMGIELLNEPWPGSRFLSCFPNGCPDFDRTYQAAMQKLTDAVRAQNPTIPVYWEPNVTWNQMMPSNLFAPPVTPALTTADVVFAPHDYCIPSQLAIYLGLPQALRGLCVPQQDLTWSNIDAITERANVPTVITSFGDGDPTVLKNTLARADERFIGWQYWHFGAGNATDPFLGEVGRQLVRTYPQATAGEPGRMIFDADNGDFAYRFTPRAATRPTEIFVSDLHYPDGYAVQVDGGQVTSAPGARIVTVVADGSGPVTVKINRPGSAGAEVPDGPIETSSSGSSGSS
B6: SEQ ID NO: 6: EGC synthase, E350S, Δ1-24, N-term. His-Tag, Δ146-152; Rhodococcus sp. AQ5-07 (protein)
chain: B2 chain with Y256D
modifications: N-terminal His-tag
B7: SEQ ID NO: 18: EGC synthase, E351S, D314Y, Δ1-30, N-term. His-Tag, Δ148-154; Rhodococcus sp. strain M-777 (protein)
chain: MGSSHHHHHHSSGLVPRGSHMSGSGSGSGTALTPSYLKDDDGRSLILRGFNTASSAKSAPDGMPQFTEADLAREYADMGTNFVRFLISWRSVEPAPGVYDQQYLDRVEDRVGWYAERGYKVMLDMHQDVYSGAITPEGAIGNGAPAWATYMDGLPVEPQPRWELYYIQPGVMRAFDNFWNTTGKHPELVEHYAKAWRAVADRFADNDAVVAYDLMNEPFGGSLQGPAFEAGPLAAMYQRTTDAIRQVDQDTWVCVAPQAIGVNQGLPSGLTKIDDPRAGQQRIAYCPHLYPLPLDIGYGHEGLARTLTDVTIDAWRANTAHTARVLGDVPIILGSFGLDTTLPGARDYIERVYGTAREMGAGVSYWSSDPGPWGPYLPDGTQTLLVDTLNKPYPRAVAGTPTEWSSTSDRLQLTIEPDAAITAPTEIYLPEAGFPGDVHVEGADVVGWDRQSRLLTVRTPADSGNVTVTVTPAA
modifications: N-terminal His-tag

experiment: Km determination of EGC synthases with lactosyl fluoride and sphingosine (HPLC-ELSD); assay type: biochemical; details: Donor Lac-F, acceptor sphingosine; cell-free extract
Description: The assay mixture contained 1 M sodium acetate buffer at pH 5.5, 20 mg/mL sphingosine-base and EGCS enzyme. As a reference, EGC synthase of SEQ ID NO:17 was used. Six different concentrations of lactosyl fluoride (Lac-F) ranging from 5 mg/mL to 164 mg/mL were assayed. From every assay mixture, four time points were collected by quenching the reaction with 19× volume of DMSO. The samples were analyzed by HPLC-ELSD analysis and conversion rates were determined by linear regression.

Molecule | U/mg CFE [U/mg CFE]
B1 | 0.20
B2 | 0.60
B3 | 0.074
B4 | 0.61

same assay, conditions: relative to reference SEQ ID NO: 17; donor Lac-F, acceptor sphingosine

Molecule | Fold improvement to reference
B1 | 2.7
B2 | 8.1
B3 | 1.0
B4 | 8.2

experiment: Enzymatic conversion of lactosyl sphingoid bases with β-galactosidase; assay type: biochemical; details: within about 48 to about 72 hours at about 37° C.; 1 M NaOAc pH 5.0, 5 g/L β-cyclodextrin, 5 g/L enzyme
Description: Enzymatic reactions were performed in 1 M NaOAc buffer (pH set to 5.0). A typical reaction mixture contained 50-100 g/L of lactosyl sphingoid base (synthesised according to the general procedure of Example 3 or Example 5), 5 g/L of β-cyclodextrin, 5 g/L of β-galactosidase (e.g. from A. oryzae). Typically, the reaction proceeds up to 99% conversion within about 48 to about 72 hours at about 37° C. and continuous stirring. The enzymatic reaction was followed by LCMS analysis (for methods and conditions see Example 9).
Samples (25 μL) were taken from reaction mixtures, mixed with DMSO (950 μL) and subjected to centrifugation (16.000 rpm, 5 min) and analyzed with a Shimadzu ECO 2020 LC system coupled with a Shimadzu LCMS-2020 system. The HPLC analysis was performed using a Merck Ascentis Express RP-Amide column (15 cm×4.6 mm, 2.7 μm). For analysis of compounds the eluent consisted of solvent D (2 mM ammonium formate, […], 75% v/v MeOH, 25% v/v ACN)-solvent C (2 mM formic acid in filtered ddH2O), and the following gradient was applied as stated in the table below. The flow rate was 1 mL/min. The MS analysis was performed under the following conditions: ESI positive ionization, vaporizer temperature 300° C.; LC-MS mode, 1:1 split of flow; ESI negative ionization, vaporizer temperature 300° C.; LC-MS mode, 1:1 split of flow.

Molecule | conversion
β-galactosidase | up to 99%

experiment: Production of lactosyl-6-hydroxysphingosine: conversion rates of different enzymes; assay type: biochemical; details: Time 1 h; 30 mg/mL 6-OH-Sph, 300 mg/mL Lac-F, 1 M NaOAc, pH 6.0, 37° C.
Description: Reaction contained: 30 mg/mL 6-OH-Sph, 300 mg/mL Lac-F, enzyme, 1 M NaOAc.
Reactions were executed at pH 6.0, 37° C. and 1500 rpm stirring. Product analysis was done by ELSD (% rel. conversion) and LC-MS using standard conditions for Lac-Sph analysis.

Molecule | Conversion [% ELSD area product]
B5 | 3.7
B2 | 100
B6 | 100
B3 | 99.4
B7 | 99.3

same assay, conditions: Time 2 h; 30 mg/mL 6-OH-Sph, 300 mg/mL Lac-F, 1 M NaOAc, pH 6.0, 37° C.

Molecule | Conversion [% ELSD area product]
B5 | 9.1
B2 | 100
B6 | 100
B3 | 100
B7 | 99.8
